Seven molecules from patent publication US20220112244A1 (DOMPE FARMACEUTICI S P A, published 2022) can be followed below.

What is called Kd is a measure of binding affinity in units of concentration. Lower therefore signals higher affinity.

The first assay concerns the target T1, mouse IL-17A (mouse, UniProt Q62386 26-158).
T1 construct: also called mIL-17 Å; mIL17
T1 sequence (looked up): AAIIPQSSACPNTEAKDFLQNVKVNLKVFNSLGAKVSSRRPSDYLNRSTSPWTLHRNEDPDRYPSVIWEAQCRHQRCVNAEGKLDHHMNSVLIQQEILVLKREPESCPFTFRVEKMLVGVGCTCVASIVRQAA
Briefly: SPR on immobilised mouse IL-17A.
Turning to Ac-VHVTIPADLWDWINK-NH2 (HAP with Ile 1 replaced by Val) [peptide of SEQ ID NO: 2], the “fold affinity against SEQ ID NO: 1” value came out at 28 fold.

The target in another assay is T2, IL-17A (agonist in the IL-17RA/IL17RC dimerization assay) (UniProt Q16552 24-155). Briefly: cell-based or functional assay.
T2 sequence (Q16552 24-155 limits assumed): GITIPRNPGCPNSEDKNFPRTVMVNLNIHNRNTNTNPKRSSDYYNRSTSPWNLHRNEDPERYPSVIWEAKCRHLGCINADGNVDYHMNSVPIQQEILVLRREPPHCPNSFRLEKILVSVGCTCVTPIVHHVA
With Ac-IHVTIPADLWDWVNK-NH2 [peptide of SEQ ID NO: 8], the “IC50, % inhibition of IL-17A-induced IL-17RA/IL17RC dimerization (PathHunter cytokine receptor assay)” value (from here on “IC50, % inhibition”) is 189 nM.
With Ac-VMVTIPADLYEWIEEVPGAGVPGAG-NH2 [peptide of SEQ ID NO: 37], the “IC50, % inhibition” value came out at 188 nM.
For Ac-VMVTIPADLYEWIEEVPGDG-NH2 [peptide of SEQ ID NO: 40], the “IC50, % inhibition” value stood at 240 nM.
As to Ac-VHVTIPADLWDWINK-NH2 (HAP with Ile 1 replaced by Val) [peptide of SEQ ID NO: 2], the “IC50, % inhibition” value was found to be 191 nM.
Consider Ac-VMVTIPADLWDWINK-NH2 [peptide of SEQ ID NO: 4], for which the “IC50, % inhibition” value worked out at 203 nM.
The same measure, in the same setting: for Ac-VPGDGVMVTIPADLYEWIEE-NH2 [peptide of SEQ ID NO: 39] the value was 158 nM.

A further assay has as its target T1, mouse IL-17A. The assay can be described thus: SPR, mouse IL-17A amine-coupled to the chip (3000 RU), peptide 62.5-1000 nM as analyte, Scatchard analysis of RU at equilibrium. In general terms: Surface plasmon resonance follows binding to a sensor surface in real time, without labels.
Ac-IHVTIPADLWDWINK-NH2 [High Affinity Peptide (HAP), peptide of SEQ ID NO: 1] came in with a Kd of 3700 nM.
Turning to Ac-VHVTIPADLWDWINK-NH2 (HAP with Ile 1 replaced by Val) [peptide of SEQ ID NO: 2], the Kd was 130 nM.

The next assay has as its target T2, IL-17A (agonist in the IL-17RA/IL17RC …). The assay can be described thus: cell-based or functional assay. The source holds these as a separate data set.
Ac-IHVTIPADLWDWVNK-NH2 [peptide of SEQ ID NO: 8]: the “IC50 in IL-17RA/IL7RC dimerization assay” value is less than 200 nM.
The same measure, in the same setting: for Ac-VMVTIPADLYEWIEEVPGAGVPGAG-NH2 [peptide of SEQ ID NO: 37] the value was less than 200 nM.
On the same count and under the same terms, for Ac-VMVTIPADLYEWIEEVPGDG-NH2 [peptide of SEQ ID NO: 40] the value was less than 200 nM; for Ac-VHVTIPADLWDWINK-NH2 (HAP with Ile 1 replaced by Val) [peptide of SEQ ID NO: 2], less than 200 nM.
As to Ac-VMVTIPADLWDWINK-NH2 [peptide of SEQ ID NO: 4], the “IC50 in IL-17RA/IL7RC dimerization assay” value is less than 100 nM.
For Ac-VPGDGVMVTIPADLYEWIEE-NH2 [peptide of SEQ ID NO: 39], the “IC50 in IL-17RA/IL7RC dimerization assay” value is less than 200 nM.
